Primed or numbered codes have the meaning given here. Ends that are not written are not given here. PEG10 = NCCOCCOCCOCCOCCOCCOCCOCCOCCOCCOCCC(=O)O; PEG20′ = not defined here; PEG4′ = not defined here
Columns and labels:
[1] = molecular target: T1, human IL-2Rγc (CD132 protein, Fc Tag) (23-254) (human, UniProt P31785 23-254); assay: competitive binding ELISA (Example 28)
T1 construct: range 23-254; Bought protein; also called hu-IL-2Rγc subunit; IL-2Rγc subunit; not shown: Fc tag of the bought protein
T1 sequence (looked up): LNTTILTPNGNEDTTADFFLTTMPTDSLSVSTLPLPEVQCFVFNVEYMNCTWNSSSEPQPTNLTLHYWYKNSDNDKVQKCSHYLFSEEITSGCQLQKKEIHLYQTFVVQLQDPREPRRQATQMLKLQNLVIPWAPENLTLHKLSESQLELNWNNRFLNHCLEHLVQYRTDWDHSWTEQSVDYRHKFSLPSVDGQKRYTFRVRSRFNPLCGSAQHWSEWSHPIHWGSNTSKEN
Protocol: In this example, IL-2R ligands were diluted to 2-times final assay concentration in PBT (1×PBS pH 7.2, 0.5% Bovine Serum Albumin, 0.05% Tween®20) and serially diluted. Fifty (50) μL was added to the appropriate wells. The plates were then incubated at 4° C. for 1 hr.
Without washing, fifty (50) μL of representative phage were added to the assay wells (phage tracer). The plates were then incubated at 4° C. for 45 min.

[2] = molecular target: T2, human IL-2Rβ (CD122 protein, Fc Tag) (27-239) (human, UniProt P14784 27-239); assay: competition ELISA, peptide tracer
T2 construct: range 27-239; Bought protein; also called hu-IL-2Rβ subunit; IL-2Rβ subunit; not shown: Fc tag of the bought protein
T2 sequence (looked up): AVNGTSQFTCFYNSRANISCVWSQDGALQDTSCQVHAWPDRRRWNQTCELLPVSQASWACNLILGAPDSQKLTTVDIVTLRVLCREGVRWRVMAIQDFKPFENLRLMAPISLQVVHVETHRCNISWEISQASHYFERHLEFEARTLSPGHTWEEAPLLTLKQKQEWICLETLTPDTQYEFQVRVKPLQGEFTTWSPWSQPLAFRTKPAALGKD
Protocol: (§1) Binding of Fc fusions to IL-2Rβ and IL-2Rγc were measured using a competition binding ELISA with biotinylated peptide/NeutrAvidin-HRP tracer. ELISA plate was prepared as described in Example 27.
(§2) The plate was washed 4 times with PT (1×PBS, 0.05% Tween® 20) buffer. Fifty (50) μL of IL-2R ligands serially diluted in PBT was added to appropriate wells then incubated at 4° C. for 1 hr.
(§3) At the appropriate time, the precomplexed bn-peptide/NA-HRP tracer was diluted to 2-fold its predetermined binding EC80 (typically 30 to 10 nM) without washing. fifty (50) μL of bn-peptide/NA-HRP tracer was added to each well and incubated at 4° C. for 45 mins.

[3] = molecular target: T1, human IL-2Rγc (CD132 protein, Fc Tag) …; assay: competition ELISA, peptide tracer
Protocol: as §1, §2, §3

[4] = molecular target: T3, cynomolgus monkey IL-2Rβ subunit (cynomolgus monkey); assay: competition ELISA, peptide tracer
T3 construct: Bought protein; also called cyno-IL-2Rβ subunit
T3 sequence (Q38J85 whole entry): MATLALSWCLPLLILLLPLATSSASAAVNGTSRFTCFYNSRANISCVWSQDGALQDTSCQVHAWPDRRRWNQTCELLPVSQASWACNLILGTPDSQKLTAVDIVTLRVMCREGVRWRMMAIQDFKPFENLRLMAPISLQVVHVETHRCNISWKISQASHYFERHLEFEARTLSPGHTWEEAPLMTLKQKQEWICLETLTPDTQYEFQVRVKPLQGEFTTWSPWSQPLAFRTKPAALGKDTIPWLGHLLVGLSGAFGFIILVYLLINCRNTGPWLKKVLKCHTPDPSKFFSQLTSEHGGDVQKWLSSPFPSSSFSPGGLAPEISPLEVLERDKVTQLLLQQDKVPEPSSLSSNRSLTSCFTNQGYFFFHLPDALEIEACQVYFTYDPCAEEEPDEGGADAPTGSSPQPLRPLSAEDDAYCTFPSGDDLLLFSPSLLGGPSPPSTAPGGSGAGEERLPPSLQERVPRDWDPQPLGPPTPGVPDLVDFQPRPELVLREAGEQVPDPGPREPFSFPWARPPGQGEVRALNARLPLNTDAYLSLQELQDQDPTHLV
Protocol: as §1, §2, §3

[5] = molecular target: T4, cynomolgus monkey Rγc subunit (cynomolgus monkey); assay: competition ELISA, peptide tracer
T4 construct: also called cyno-IL-2Rγc subunit
Protocol: as §1, §2, §3

hu-IL-2R = molecular target: T5, hu-IL-2R (human, UniProt P14784 27-551; P31785 23-369); assay: cell-based or functional assay
T5 sequence (looked up) 1: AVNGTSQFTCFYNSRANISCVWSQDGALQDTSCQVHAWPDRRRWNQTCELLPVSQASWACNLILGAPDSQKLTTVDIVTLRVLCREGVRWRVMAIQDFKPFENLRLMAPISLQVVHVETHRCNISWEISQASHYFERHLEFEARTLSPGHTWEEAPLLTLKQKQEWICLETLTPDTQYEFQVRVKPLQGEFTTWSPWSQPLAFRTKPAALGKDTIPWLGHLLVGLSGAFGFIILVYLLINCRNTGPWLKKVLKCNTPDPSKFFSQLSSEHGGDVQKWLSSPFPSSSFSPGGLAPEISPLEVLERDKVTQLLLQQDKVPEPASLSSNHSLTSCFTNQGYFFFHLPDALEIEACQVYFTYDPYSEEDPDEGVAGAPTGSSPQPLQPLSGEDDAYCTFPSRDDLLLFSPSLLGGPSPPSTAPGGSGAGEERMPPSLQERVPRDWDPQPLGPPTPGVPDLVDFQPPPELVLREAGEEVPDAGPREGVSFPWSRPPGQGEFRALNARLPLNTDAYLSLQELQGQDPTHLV
T5 sequence (looked up) 2: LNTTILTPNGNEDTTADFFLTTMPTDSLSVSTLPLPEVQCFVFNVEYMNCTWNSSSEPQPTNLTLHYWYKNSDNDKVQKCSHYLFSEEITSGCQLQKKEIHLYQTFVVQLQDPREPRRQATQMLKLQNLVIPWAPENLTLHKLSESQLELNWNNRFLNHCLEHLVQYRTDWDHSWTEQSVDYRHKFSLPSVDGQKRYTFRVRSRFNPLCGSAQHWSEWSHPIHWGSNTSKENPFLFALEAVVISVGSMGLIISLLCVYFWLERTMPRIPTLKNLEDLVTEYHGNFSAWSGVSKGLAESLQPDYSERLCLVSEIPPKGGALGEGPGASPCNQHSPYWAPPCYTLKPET

[6] = molecular target: T2, human IL-2Rβ (CD122 protein, Fc Tag) …; assay: IL-2Rβ IC50, assay not named in Example 29
[7] = molecular target: T1, human IL-2Rγc (CD132 protein, Fc Tag) …; assay: IL-2Rγc IC50, assay not named in Example 29

B1: IL-2Rγc ligand SEQ ID NO: 248 (peptide)
peptide: DLSDLSTFWLSQ
notes: Used as synthetic peptide and as phage clone; also called family 3
In the case of B1, the IC50 [1] is reported as < 10 µM.

B2: SEQ ID NO 4178 (peptide)
peptide: GGELLVDCFKVKVGELCDLFFGPAPAPAPAPAPAPAPAGVVCQDWEGVELCWQGG
For B2, the IC50 [2] was < 100 µM, the IC50 [3] was < 100 µM and the IC50 [4] was < 100 µM. For the same binder, the IC50 [5] was < 100 µM.

B3: SEQ ID NO 4181 (peptide)
peptide: GGELLVDCFRVRVGELCDLFFGPAPAPAPAPAPAPAPAGVVCQDWEGVELCWQGG
B3 was tested, and the IC50 [2] was < 100 µM, the IC50 [3] was < 100 µM and the IC50 [4] was < 100 µM. The IC50 [5] was < 100 µM.

With {PEG 40 kDa linear-PEG20′}-GGWYPCWMAQLGELCDLDGGGGSGGVVCQDWEGVELCWQGG (cysteine pairing not given here; reading uncertain) [PEG-IL-2Rβγc ligand construct PEG-6] the “EC50 (STAT5, NK92)” value (hu-IL-2R) was 0.0016 µM, the IC50 [6] was 0.017 µM and the IC50 [7] was 0.0034 µM.

B4: IL-2Rβγc ligand BGL22 (peptide)
peptide 1: GGRYVHDCFIAQVGALCDLFLHPAPAPAPAPAPAPAPA
peptide 2: VVCQDWEGVELCWQGG
modifications: cysteine pairing not given here; also: two chains joined by non-peptidyl linker L11 (click chemistry)
notes: Made by click chemistry
In the case of B4, the IC50 [2] is reported as < 100 µM, the IC50 [3] is reported as < 100 µM and the IC50 [4] is reported as < 100 µM. For the same binder, the IC50 [5] was < 100 µM.

B5: IL-2Rβγc ligand BGL23 (peptide)
peptide 1: GGRYVHACFIAQVGDLCDLFLHPAPAPAPAPAPAPAPA
peptide 2: VVCQDWEGVELCWQGG
modifications: cysteine pairing not given here; also: two chains joined by non-peptidyl linker L11 (click chemistry)
notes: Made by click chemistry
In the case of B5, the IC50 [2] is reported as < 100 µM, the IC50 [3] is reported as < 100 µM and the IC50 [4] is reported as < 100 µM. For the same binder, the IC50 [5] was < 100 µM.

B6: IL-2Rβγc ligand BGL24 (peptide)
peptide 1: GGRYVHDCFIAQVGDLCDLALHPAPAPAPAPAPAPAPA
peptide 2: VVCQDWEGVELCWQGG
modifications: cysteine pairing not given here; also: two chains joined by non-peptidyl linker L11 (click chemistry)
notes: Made by click chemistry
With B6 the IC50 [2] was < 100 µM, the IC50 [3] was < 100 µM and the IC50 [4] was < 100 µM. The IC50 [5] was < 100 µM.

For GGWYPCWMAQLGELCDLDGGGGSGGVVCQDWEGVELCWQGG-{PEG4′-PEG 40 kDa branched} (cysteine pairing not given here) [PEG-IL-2Rβγc ligand construct PEG-2], the “EC50 (STAT5, NK92)” value (hu-IL-2R) was 0.273 µM, the IC50 [6] was 0.008 µM and the IC50 [7] was 0.69 µM.

LVDCFKVKVGELCDLFFGPAPAPAPAPAPAPAPAGVVCQDWEGVELCWQ [SEQ ID NO 4179] was tested, and the IC50 [2] was < 100 µM, the IC50 [3] was < 100 µM and the IC50 [4] was < 100 µM. The IC50 [5] was < 100 µM.

B7: IL-2Rβγc ligand having SEQ ID NO: 4171 (peptide)
peptide: GGGELLVDCFKVKVGELCDLFFGPAPAPAPAPAPAPAPAGVVCQDWEGVELCWQGG
For B7, the IC50 [2] was < 100 µM, the IC50 [3] was < 100 µM and the IC50 [4] was < 100 µM. The IC50 [5] was < 100 µM.

B8: PEG-IL-2Rβγc ligand construct PEG-3 (peptide)
peptide: {PEG 40 kDa branched}-APAPAPAPAPAPGGWYPCWMAQLGELCDLDGGGGSGGVVCQDWEGVELCWQGG
modifications: cysteine pairing not given here
In the case of B8, the “EC50 (STAT5, NK92)” value (hu-IL-2R) is reported as 0.0023 µM, the IC50 [6] is reported as 0.014 µM and the IC50 [7] is reported as 0.0043 µM.

B9: IL-2Rγc ligand SEQ ID NO: 1032 (peptide)
peptide: SLLKCYNASTCASVF
notes: Used as synthetic peptide and as phage clone; also called family 5
In the case of B9, the IC50 [1] is reported as < 10 µM.

B10: SEQ ID NO 4170 (peptide)
peptide: GGGELLVDCFKVKVGELCDLFFGGGGGSGGGGSGGGGSGGGGSGGVVCQDWEGVELCWQGG
With B10 the IC50 [2] was < 100 µM, the IC50 [3] was < 100 µM and the IC50 [4] was < 100 µM. The IC50 [5] was < 100 µM.

B11: IL-2Rγc ligand SEQ ID NO: 224 (peptide)
peptide: DCSMWEGVELCW
notes: Used as synthetic peptide and as phage clone; also called family 1B
B11 was tested, and the IC50 [1] was < 10 µM.

B12: IL-2Rγc ligand SEQ ID NO: 198 (peptide)
peptide: KVCEMWGGVLLCWN
notes: Used as phage clone; also called family 1A
With B12 the IC50 [1] was < 10 µM.

GGWYPCWMAQLGELCDLDGGGGSGGVVCQDWEGVELCWQGG-{PEG10-PEG 40 kDa branched} (cysteine pairing not given here) [PEG-IL-2Rβγc ligand construct PEG-4] was tested, and the “EC50 (STAT5, NK92)” value (hu-IL-2R) was 0.024 µM, the IC50 [6] was 0.0085 µM and the IC50 [7] was 0.0037 µM.

With RTCTEWENVVLCWV (also called family 1A) [IL-2Rγc ligand SEQ ID NO: 202] the IC50 [1] was < 10 µM.

B13: IL-2Rγc ligand SEQ ID NO: 236 (peptide)
peptide: MCWLEWGEWVGSCL
notes: Used as synthetic peptide and as phage clone; also called family 2
For B13, the IC50 [1] was < 10 µM.

B14: PEG-IL-2Rβγc ligand construct PEG-1 (peptide)
peptide: {PEG 40 kDa branched-PEG10}-GGWYPCWMAQLGELCDLDGGGGSGGVVCQDWEGVELCWQGG
modifications: not fully specified; printed as -GGWYPCWMAQLGELCDLDGGGGSGGVVCQDWEGVELCWQGG-; cysteine pairing not given here
For B14, the “EC50 (STAT5, NK92)” value (hu-IL-2R) was 0.0058 µM, the IC50 [6] was 0.031 µM and the IC50 [7] was 0.026 µM.

B15: IL-2Rγc ligand SEQ ID NO: 266 (peptide)
peptide: CPSMLQGPERTWVC
notes: Used as phage clone; also called family 4
For B15, the IC50 [1] was < 10 µM.

With {PEG 20 kDa linear-PEG20′}-GGWYPCWMAQLGELCDLDGGGGSGGVVCQDWEGVELCWQGG (cysteine pairing not given here; reading uncertain) [PEG-IL-2Rβγc ligand construct PEG-5] the “EC50 (STAT5, NK92)” value (hu-IL-2R) was 0.001 µM, the IC50 [6] was 0.033 µM and the IC50 [7] was 0.0041 µM.

For VDCFKVKVGELCDLFFGPAPAPAPAPAPAPAPAGVVCQDWEGVELCWQ [SEQ ID NO 4180], the IC50 [2] was < 100 µM, the IC50 [3] was < 100 µM and the IC50 [4] was < 100 µM. For the same binder, the IC50 [5] was < 100 µM.

{PEG 40 kDa branched-PEG20′}-GGWYPCWMAQLGELCDLDGGGGSGGVVCQDWEGVELCWQGG (cysteine pairing not given here; reading uncertain) [PEG-IL-2Rβγc ligand construct PEG-7] was tested, and the “EC50 (STAT5, NK92)” value (hu-IL-2R) was 0.0083 µM, the IC50 [6] was 0.0034 µM and the IC50 [7] was 0.0017 µM.

Source: patent publication US20220119492A1 (MEDIKINE, published 2022)
